Molecular target: T1, GFP-tagged Lsm188p (Lsm8p with the N-terminal domain of Lsm1p) (S. cerevisiae, UniProt P47017 1-51; P47093 11-109)
T1 chain (looked up): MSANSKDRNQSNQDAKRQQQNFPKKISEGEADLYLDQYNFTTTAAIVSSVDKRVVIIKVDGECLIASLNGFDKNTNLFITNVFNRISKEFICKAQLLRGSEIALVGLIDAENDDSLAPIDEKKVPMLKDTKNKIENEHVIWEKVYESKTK
Assay: co-IP

B1: Lsm7–Myc (genomically encoded Lsm7p with 13myc tag) (natural protein, S. cerevisiae, UniProt P53905 1-115, looked up)
chain: MHQQHSKSENKPQQQRKKFEGPKREAILDLAKYKDSKIRVKLMGGKLVIGVLKGYDQLMNLVLDDTVEYMSNPDDENNTELISKNARKLGLTVIRGTILVSLSSAEGSDVLYMQK
- reduction of co-precipitated Lsm7p against wild-type: > 50 % reduction

— paper PMC2776932 (The Febs Journal, 2009)
